Data: PMC5458078, “Global mapping of CARM1 substrates defines enzyme specificity and substrate recognition” (Nature Communications, 2017)

Experiments:
[1] = test system: GST fused MED12, BAF155 and PABP1 peptides; test: In vitro methylation of GST fused peptides by recombinant CARM1 proteins, autoradiography; format: biochemical; details: 3H-SAM, 1–4 h, 30 °C; compared with CARM1 FL and CARM1 28–608
Method: The FL and N-terminal domain-deleted version of human CARM1 cDNAs, and other PRMT FL cDNAs were cloned into pFN21K Halo Tag CMV Flexi mammalian expression vector (Promega, Madison, WI) using the unique Sgfl and Pmel site[55]. To express the protein, DNA constructs were transiently transfected into HEK293T CARM1 KO cells in 15 cm dishes using transIT-LT1 reagent (Mirus Bio, Madison, WI) according to the manufacturer's protocol. Proteins were allowed to express for 48 h. Cell pellets were then collected and lysed in lysis buffer (50 mM HEPES, pH 7.5, 150 mM NaCl, 0.005% NP-40, 0.5 mM EDTA, supplemented with 1 × protease inhibitor cocktail before use). The cells were sonicated on ice using a Branson Sonifier 450 with a microtip at 35% amplitude (10 s on, 30 s off, 6 cycles). The crude lysate was cleared by centrifugation (15,000 r.p.m., 4 °C, 20 min). […] The resin was centrifuged at 3,000 r.p.m. for 5 min, and the supernatant containing the cleaved protein was collected and protein concentration was determined using the Bradford assay (Thermo Scientific, Rockford, IL). Protein purity was assessed by running SDS–PAGE and Coomassie Blue staining.
The DNA fragments were cloned into pGEX-2T GST expression vector (GE Healthcare, Waukesha, WI). […] Protein concentration was then determined using Bradford assay and protein purity was assessed by SDS–PAGE and Coomassie Blue staining. […]

MCF7 CARM1 KO cells [2] = test: Total cellular ADMA levels, stable expression, western blot; format: cell-based, human; details: stable expression in MCF7 CARM1 KO cells; compared with CARM1 FL and CARM1 28–608
From the text: (§1) We next sought to assess the impact of CARM1 N-terminal deletion in cells stably expressing mutant enzymes. […] To quantify the affected ADMA-containing peptides in MCF7 CARM1 KO and CARM1 140–608 expressing cells, we employed our quantitative MS method (Fig. 1a) using CARM1 28–608 as a reference for normalization (Supplementary Data 4). […] The magnitude of reduction in CARM1 140–608 cells, however, was slightly less than that in the CARM1 KO cells. […] As indicated by R^2 of 0.65, noticeable differences existed between the levels of ADMA-containing peptides in cells expressing the N-terminal truncation of CARM1 and CARM1 28–608 control (Supplementary Fig. 4f).
(§2) Cells were collected by trypsinization, washed with Dulbecco's phosphate buffer saline (Life Technologies, Carlsbad, CA) and lysed by suspension in lysis buffer (50 mM Tris-HCl pH 8.0, 150 mM NaCl, 10% glycerol, 0.5% Triton X-100 and 1 × protease inhibitor cocktail (Sigma-Aldrich)). After brief sonication followed by centrifugation, total protein was quantified using the BioRad Protein Assay (BioRad, Hercules, CA), and 20 μg protein was resolved by SDS–PAGE. Proteins were transferred to a nitrocellulose membrane for 1.5 h at 350 mA. Membranes were blocked with 5% nonfat milk at room temperature for 1 h and incubated overnight with diluted primary antibody at 4 °C. […]

MCF7 CARM1 KO cells [3] = test: In vivo methylation of BAF155, stable expression, western blot; format: cell-based, human
From the text: as §1, §2

B1: CARM1 140–608: CARM1 140–608 lacks the first 140 residues encompassing the EVH1 domain (protein)
chain: RTEESSAVQYFQFYGYLSQQQNMMQDYVRTGTYQRAILQNHTDFKDKIVLDVGCGSGILSFFAAQAGARKIYAVEASTMAQHAEVLVKSNNLTDRIVVIPGKVEEVSLPEQVDIIISEPMGYMLFNERMLESYLHAKKYLKPSGNMFPTIGDVHLAPFTDEQLYMEQFTKANFWYQPSFHGVDLSALRGAAVDEYFRQPVVDTFDIRILMAKSVKYTVNFLEAKEGDLHRIEIPFKFHMLHSGLVHGLAFWFDVAFIGSIMTVWLSTAPTEPLTHWYQVRCLFQSPLFAKAGDTLSGTCLLIANKRQSYDISIVAQVDQTGSKSSNLLDLKNPFFRYTGTTPSPPPGSHYTSPSENMWNTGSTYNLSSGMAVAGMPTAYDLSSVIASGSSVGHNNLIPLANTGIVNHTHSRMGSIMSTGIVQGSSGAQGSGGGSTSAHYAVNSQFTMGGPAISMASPMSIPTNTMHYGS
modifications: left off: FLAG, end not stated, kept
notes: CARM1 140–608 lacks the first 140 residues encompassing the EVH1 domain
Methylation of GST fused MED12, BAF155 and PABP1 peptides and other protein substrates [1]: greatly reduced ability
Cellular protein (ADMA) methylation levels (MCF7 CARM1 KO cells [2]): drastically decreased levels of cellular protein methylation
In vivo methylation of BAF155 (MCF7 CARM1 KO cells [3]): impaired in vivo methylation of BAF155
